Test results from patent US20190144558A1 (MAGENTA THERAPEUTICS, published 2019).

B1: Antibody 67 (antibody, human IgG1, kappa, V domains shown)
VH: EVQLVESGGGLVQPGGSLRLSCAASGFTFSDADMDWVRQAPGKGLEWVGRTRNKAGSYTTEYAASVKGRFTISRDDSKNSLYLQMNSLKTEDTAVYYCAREPKYWIDFDLWGRGTLVTVSS
VL: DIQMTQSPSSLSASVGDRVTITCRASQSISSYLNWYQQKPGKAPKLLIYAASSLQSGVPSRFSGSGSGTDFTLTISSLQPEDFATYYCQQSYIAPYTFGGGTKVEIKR
notes: also called Ab67; HC-67/LC-67
B2: Antibody 66 (antibody, human IgG1, kappa, V domains shown)
VH: EVQLVESGGGLVQPGGSLRLSCAASGFTFSDHYMDWVRQAPGKGLEWVGRTRNKASSYTTEYAASVKGRFTISRDDSKNSLYLQMNSLKTEDTAVYYCAREPKYWIDFDLWGRGTLVTVSS
VL: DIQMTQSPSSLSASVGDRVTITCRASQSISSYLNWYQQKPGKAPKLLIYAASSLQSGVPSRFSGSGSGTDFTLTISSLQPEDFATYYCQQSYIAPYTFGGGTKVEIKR
notes: also called Ab66; HC-66/LC-66
B3: Antibody 69 (antibody, human IgG1, kappa, V domains shown)
VH: EVQLVESGGGLVQPGGSLRLSCAASGFTFVDHDMDWVRQAPGKGLEWVGRTRNKLGSYTTEYAASVKGRFTISRDDSKNSLYLQMNSLKTEDTAVYYCAREPKYWIDFDLWGRGTLVTVSS
VL: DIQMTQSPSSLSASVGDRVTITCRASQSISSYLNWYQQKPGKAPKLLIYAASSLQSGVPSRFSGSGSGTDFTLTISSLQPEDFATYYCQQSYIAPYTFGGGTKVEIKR
notes: also called Ab69; HC-69/LC-69
B4: Antibody 68 (antibody, human IgG1, kappa, V domains shown)
VH: EVQLVESGGGLVQPGRSLRLSCTASGFTFSDHDMNWVRQAPGKGLEWVGRTRNAAGSYTTEYAASVKGRFTISRDDSKNSLYLQMNSLKTEDTAVYYCAREPKYWIDFDLWGRGTLVTVSS
VL: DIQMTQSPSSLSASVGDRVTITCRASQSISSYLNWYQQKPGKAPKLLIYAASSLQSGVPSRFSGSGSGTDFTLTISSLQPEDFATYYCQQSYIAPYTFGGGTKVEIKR
notes: also called Ab68; HC-68/LC-68
B5: Antibody 56 (antibody, human IgG1, kappa, V domains shown)
VH: QVQLVQSGAEVKKPGSSVKVSCKASGGTFSLYAISWVRQAPGQGLEWMGGIIPAFGTANYAQKFQGRVTITADESTSTAYMELSSLRSEDTAVYYCARGGLDTDEFDLWGRGTLVTVSS
VL: DIQMTQSPSSLSASVGDRVTITCRASQSINSYLNWYQQKPGKAPKLLIYAASSLQSGVPSRFSGSGSGTDFTLTISSLQPEDFATYYCQQGVSDITFGGGTKVEIKR
notes: also called Ab56; HC-56/LC-56
B6: Antibody 57 (antibody, human IgG1, kappa, V domains shown)
VH: QVQLVQSGAEVKKPGSSVKVSCKASGGTFSLYAISWVRQAPGQGLEWMGGIIPHFGLANYAQKFQGRVTITADESTSTAYMELSSLRSEDTAVYYCARGGLDTDEFDLWGRGTLVTVSS
VL: DIQMTQSPSSLSASVGDRVTITCRASQSINSYLNWYQQKPGKAPKLLIYAASSLQSGVPSRFSGSGSGTDFTLTISSLQPEDFATYYCQQGVSDITFGGGTKVEIKR
notes: also called Ab57; HC-57/LC-57
B7: Antibody 54 (antibody, human IgG1, kappa, V domains shown)
VH: QVQLVQSGAEVKKPGSSVKVSCKASGGTFSSYAISWVRQAPGQGLEWMGGIIPIFGTANYAQKFQGRVTITADESTSTAYMELSSLRSEDTAVYYCARGGLDTDEFDLWGRGTLVTVSS
VL: DIQMTQSPSSLSASVGDRVTITCRASQSINSYLNWYQQKPGKAPKLLIYAASSLQSGVPSRFSGSGSGTDFTLTISSLQPEDFATYYCQQGVSDITFGGGTKVEIKR
notes: also called Ab54; HC-54/LC-54
B8: Antibody 55 (antibody, human IgG1, kappa, V domains shown)
VH: QVQLVQSGAEVKKPGSSVKVSCKASGGTFRIYAISWVRQAPGQGLEWMGGIIPDFGVANYAQKFQGRVTITADESTSTAYMELSSLRSEDTAVYYCARGGLDTDEFDLWGRGTLVTVSS
VL: DIQMTQSPSSLSASVGDRVTITCRASQSINSYLNWYQQKPGKAPKLLIYAASSLQSGVPSRFSGSGSGTDFTLTISSLQPEDFATYYCQQGVSDITFGGGTKVEIKR
notes: also called Ab55; HC-55/LC-55
B9: Antibody 58 (antibody, human IgG1, kappa, V domains shown)
VH: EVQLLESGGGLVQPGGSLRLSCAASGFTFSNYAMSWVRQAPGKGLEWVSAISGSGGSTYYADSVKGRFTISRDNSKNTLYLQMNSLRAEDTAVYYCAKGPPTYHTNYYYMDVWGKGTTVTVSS
VL: DIQMTQSPSSVSASVGDRVTITCRASQGISSWLAWYQQKPGKAPKLLIYAASSLQSGVPSRFSGSGSGTDFTLTISSLQPEDFATYYCQQTNSFPYTFGGGTKVEIKR
notes: also called Ab58; HC-58/LC-58
B10: Antibody 61 (antibody, human IgG1, kappa, V domains shown)
VH: EVQLLESGGGLVQPGGSLRLSCAASGFTFSSYVMIWVRQAPGKGLEWVSSISGDSVTTYYADSVKGRFTISRDNSKNTLYLQMNSLRAEDTAVYYCAKGPPTYHTNYYYMDVWGKGTTVTVSS
VL: DIQMTQSPSSVSASVGDRVTITCRASQGISSWLAWYQQKPGKAPKLLIYAASSLQSGVPSRFSGSGSGTDFTLTISSLQPEDFATYYCQQTNSFPYTFGGGTKVEIKR
notes: also called Ab61; HC-61/LC-61

Target: T1, rhesus CD117 ectodomain (rhesus, UniProt F6V858 26-524)
T1 construct: extracellular domain
Assay: BLI (Octet Red96), IgG on anti-human Fc sensors, rhesus CD117 ectodomain at 33.3 and 11 nM, 1:1 fit
Protocol: Antibody binding studies were performed at 25 degrees celsius in 1×PBS supplemented with 0.1% w/v bovine serum albumin with a Pall ForteBio Octet Red96 using biolayer interferometry (BLI).

Point of comparison: B9, Kd 30.3 nM. Against it:
- B1 — 81-fold lower, 0.376 nM
- B2 — 2.2-fold higher, 66 nM
- B3 — 57-fold lower, 0.528 nM
- B4 — 81-fold lower, 0.374 nM
- B5 — 110-fold lower, 0.28 nM
- B6 — 110-fold lower, 0.288 nM
- B7 — 12-fold lower, 2.6 nM
- B8 — 110-fold lower, 0.284 nM
- B10 — within 1.5-fold, 20.5 nM

Point of comparison: B1, koff 8.57e-05 s⁻¹. Against it:
- B2 — 300-fold higher, 0.0258 s⁻¹
- B3 — within 1.5-fold, 0.000126 s⁻¹
- B4 — within 1.5-fold, 8.98e-05 s⁻¹
- B5 — the same, 8.57e-05 s⁻¹
- B6 — the same, 8.57e-05 s⁻¹
- B7 — 9.3-fold higher, 0.000793 s⁻¹
- B8 — within 1.5-fold, 8.96e-05 s⁻¹
- B9 — 100-fold higher, 0.00855 s⁻¹
- B10 — 55-fold higher, 0.00472 s⁻¹

Point of comparison: B6, kon 298000 M⁻¹ s⁻¹. Against it:
- B1 — within 1.5-fold, 228000 M⁻¹ s⁻¹
- B2 — within 1.5-fold, 391000 M⁻¹ s⁻¹
- B3 — within 1.5-fold, 240000 M⁻¹ s⁻¹
- B4 — within 1.5-fold, 240000 M⁻¹ s⁻¹
- B5 — within 1.5-fold, 306000 M⁻¹ s⁻¹
- B7 — within 1.5-fold, 304000 M⁻¹ s⁻¹
- B8 — within 1.5-fold, 315000 M⁻¹ s⁻¹
- B9 — within 1.5-fold, 282000 M⁻¹ s⁻¹
- B10 — within 1.5-fold, 230000 M⁻¹ s⁻¹
